{"source": "patent US20090291088A1", "about": "“THERAPEUTIC COMBINATIONS OF ANTI-IGF-1R ANTIBODIES AND OTHER COMPOUNDS” (Biogen Idec MA Inc., priority 2008, published 2009)", "molecules": {"B1": {"name": "Fab M14-B01: human anti-human IGF-1R Fab from phage display library; VH SEQ ID NO:20, VL SEQ ID NO:83 (antibody, V domains shown)", "VH": "EVQLLESGGGLVQPGGSLRLSCAASGFTFSNYHMAWVRQAPGKGLEWVSVISPTGGRTTYADSVKGRFTISRDNSKNTLYLQMNSLRAEDTATYYCARAGYSYGYGYFDYWGQGTLVTVSS", "VL": "DIQMTQFPATLSVSPGERATLSCRASQSVMRNLAWYQQKPGQPPRLLIYGASKRATGIPARFSGSGSGTAFTLTISNLEPEDFAVYYCHQRSTWPLGTFGPGTKLEAK", "modifications": "Antibody variable heavy chain sequence; Antibody variable light chain sequence"}, "B2": {"name": "M12-G04.G4.P: full-length human IgG4.P version of Fab M12-G04 (antibody, V domains shown)", "VH": "EVQLLESGGGLVQPGGSLRLSCAASGFTFSKYTMHWVRQAPGKGLEWVSSIVSSGGWTDYADSVKGRFTISRDNSKNTLYLQMNSLRAEDTAVYYCARDRSIAAAGTGWSVSFVDWFDPWGQGTLVTVSS", "VL": "DIQMTQSPLSLSASVGDRVTITCRASQSINGYLNWYQQKPGKAPNLLIYATSSLQSGVPSRFSGSGSGTDFTLTISSLQPEDFATYYCQQSYSTPPYTFGQGTKLEIK"}, "B3": {"name": "Fab M12-G04: human anti-human IGF-1R Fab from phage display library; VH SEQ ID NO:9, VL SEQ ID NO:73 (antibody, V domains shown)", "VH": "B2 VH", "VL": "B2 VL", "modifications": "Antibody variable heavy chain sequence; Antibody variable light chain sequence"}, "B4": {"name": "M12-E01.G4.P: full-length human IgG4.P version of Fab M12-E01 (antibody, V domains shown)", "VH": "EVQLLESGGGLVQPGGSLRLSCAASGFTFSPYSMLWVRQAPGKGLEWVSSIGSSGGSTRYADSVKGRFTISRDNSKNTLYLQMNSLRAEDTAMYYCARVRGILHYDILIGRNLYYYYMDVWGKGTTVTVSS", "VL": "QYELTQPPSVSEAPRQRVTISCSGSSSNIGNNAINWYQQLPGKPPKLLIYYDDLLPSGVSDRFSGSKSGTSGSLAISGLQSEDEADYYCAAWDDNLNGVIFGGGTKLTVL"}, "B5": {"name": "M14-C03.G4.P: full-length human IgG4.P version of Fab M14-C03 (antibody, V domains shown)", "VH": "EVQLLESGGGLVQPGGSLRLSCAASGFTFSKYMMSWVRQAPGKGLEWVSYISPSGGLTWYADSVKGRFTISRDNSKNTLYLQMNSLRAEDTAVYYCARDGARGYGMDVWGQGTTVTVSS", "VL": "DIQMTQSPATLSLSPGERATLSCRASQSVSSYLAWYQQKPGQAPRLLIYDASNRATGIPARFSGSGSGTDFTLTISSLEPEDFAVYYCQQRSNWPPEVTFGPGTKVDIK"}}, "key": {"IGF-1R phosphorylation": {"biological_target": "T1, IGF-1R phosphorylation (Homo sapiens, UniProt P08069)", "T1 construct": "wild type IGF-1R expressed on MCF-7 tumor cells; endogenous in cells; host or cells: MCF-7", "assay": "Inhibition of IGF-1 and IGF-2 mediated IGF-1R phosphorylation in MCF-7 cells (ELISA)", "type": "cell-based", "conditions": "Fabs, MCF-7; for Inhibition of IGF-1R Phosphorylation IGF-1: IGF-1 stimulated; for Inhibition of IGF-1R Phosphorylation IGF-2: IGF-2 stimulated", "description": "Cell lines: IGF1R expressing human breast carcinoma cell line MCF-7 (NCI) were maintained at 37° C. and 5% CO2 in MEM eagle (ATCC) containing 10% FBS, 1× non-essential amino acids, 2 mM L-glutamine, 1 mM sodium pyruvate and 1000 U/ml penicillin and streptomycin. Cells were sub-cultured twice weekly for maintenance and assay, and used with a maximum of 12 passages.\nMCF-7 cells were plated in 2 ml growth media at 2×10^5 to 4.0×10^5 cells/well in Ploy-D-Lysine coated 12 well plates (BD Biosciences, #35-6470) and cultured at 37° C., 5% CO2. At 48 hours, media removed and cells serum starved overnight at 37° C., 5% CO2 Serum free media was removed and control or test antibodies at indicated concentration were added in 350 ul of fresh serum free media and incubated for 1 hour at room temperature, or alternately at 37° C. Fabs were tested at 200 nM, 20 nM and 2 nM concentration and the mAbs were tested at 67, 6.7 and 0.67 nM. The commercial anti-IGF-1R control antibody used was αIR3 (EMD biosciences, Oncogene Research products, #D27249). […] Ligand was incubated at […] for 37° C. antibody experiments. Cells were lysed in 1× cell lysis buffer (Cell Signal Technologies, #9803) with 1 mM PMSF for 1 hour at room temperature.\nCell lysates were added to ELISA plates pre-coated with IGF-1Rp antibody (Clone 1-2, Biosource International, #AHR0361) and incubated for 2 hours. Following which plates were washed and the plate bound phosphorylated receptor was detected with the biotin labeled anti-phosphotyrosine antibody 4G10 (Catalog #16-103, Upstate Cell Signaling Solutions (Lake Placid, N.Y. (now part of Millipore, Concord, Mass. (USA)) and streptavidin-HRP (BD Pharmingen, #554066). Assay is developed by addition of TMB substrate (Kierkegaard & Perry, #50-76-00) and color stopped by addition of […] (LabChem, Cat#LC25830-1). Optical density is measured at 450 nm using a Molecular Devices plate reader and percent inhibition over the ligand control is calculated for each antibody-ligand sample.\nThe effect of human anti-IGF-1R antibodies on IGF-1R signaling was evaluated using MCF-7 cells (human breast adenocarcinoma cells)."}, "IGF-1R": {"biological_target": "T2, IGF-1R (Homo sapiens, UniProt P08069)", "T2 construct": "human IGF-1R(1-903)-Fc (denoted hIGF-1R-Fc, generated by Biogen Idec)", "assay": "Ligand blocking assay (RIA): 125I-IGF-1 / 125I-IGF-2 binding to immobilized IGF-1R", "conditions": "for IGF Blocking IGF-1 / IGF Blocking IGF-2: Fabs; for IGF Blocking IGF-1: 125I-IGF-1; for IGF Blocking IGF-2: 125I-IGF-2; for blocking of IGF-1 and IGF-2 binding to IGF-1R: 100 nM-0.01 nM antibody, IGF-1R-Fc", "excerpt": "Ligand blocking assay (RIA). […] Insulin (Arg-Insulin, Cat #01-207) was purchased from Upstate Cell Signaling Solutions (Lake Placid, N.Y. (now part of Millipore, Concord, Mass. (USA)). ^125I-rhIGF-1 (Cat # IM172), ^125I-rhIGF-2 (Cat# IM238) and ^125I-rhInsulin (Cat# IM166) were purchased from Amersham Biosciences (Piscataway, N.J.). AffiPure goat anti-human IgG, Fcγ fragment specific antibodies (Cat #109-005-098, Jackson ImmunoResearch, West Grove, Pa.) was used for IGF-1R-Fc capture. As detection antibody, goat anti-mouse IgG HRP (Cat #1030-05, Southern Biotech Birmingham, Ala.) was used.\nHuman insulin receptor α-subunit specific antibodies, Clone 83-14, (Cat #AHR0221, Biosource International, Inc., Camarillo, Calif.) and the 47-9 (Cat #E55502M, Biodesign International, Saco, M E) were used as positive controls blocking of insulin-insulin receptor binding experiments. Recombinant IGF-1R-Fc fusion protein was produced at Biogen Idec (Cambridge, Mass.).\nAs isotype matched mouse negative control antibodies, 2B8 (murine α-CD20.1gG,) and 2B8 mkm.G2a (murine α-CD20 MAb, IgG2a, Biogen Idec, Lot #NB3304-87, San Diego, Calif.) were used. The negative control for Fabs was R001-1B provided by Christilyn Graff (Biogen Idec, Cambridge, Mass.). PBS used in buffers was from BioWhittaker (Cat. # 17-513F, Walkersville, Md.).\nRecombinant human IGF-1R (Histidine tagged version) or IGF-1R-Fc was coated onto IMMULON2 HB (high binding) Removawell strips (Dynex Technologies, Inc., cat. #6302) diluted with carbonate coating buffer pH 9.5 to a concentration of 250 ng/well. After overnight incubation at 4° C., the wells were washed three times with washing buffer (0.05% Tween 20/PBS) then blocked with blocking buffer (3% BSA/PBS) for one hour at room temperature. The blocking buffer was removed and the wells washed three more times. Antibody, Fab, or ligand preparations were diluted to desired concentration with dilution buffer (1% BSA/0.05% Tween 20/PBS) and plated at 50 μl per well in duplicate. After 45 minutes at room temperature, 100,000 cpm of either [125I] rhIGF-1 or [125I] rhIGF-2 in 50 μl dilution buffer was added per well. This was incubated at room temperature for one more hour. The wells were washed again three more times and left liquid free after the last wash. The air-dried wells were counted with the Isodata Gamma Counter.\nAlternatively, Fabs were evaluated by a modified capture assay, where the IGF-1R-Fc was captured using anti-human IgG immobilized to a plate. Immobilization was carried out by overnight incubation of goat anti-human IgG, Fcγ fragment specific antibody (200 ng/well) in carbonate coating buffer. The wells were washed, blocked and 250 ng of IGF-1R-Fc was added per well.\nThe ligand blocking ability of the anti-IGF-1R antibody was determined by a solid phase RIA capture method as described in Example 3. […] After 1 hour of incubation at room temperature, the wells were washed and counted for bound radioactivity by a Gamma Counter. An isotype matched negative antibody control, IDEC-151 (human G4), was used. Percent (%) inhibition was calculated as =[1−(Ave.CPM with Ab)/(Ave.CPM with buffer)]×100%."}}}
{"molecule": "B1", "values": [{"measurement": "Inhibition of IGF-1R Phosphorylation IGF-1", "setting": "IGF-1R phosphorylation", "result": "++ (>30%@1ug/ml)"}, {"measurement": "Inhibition of IGF-1R Phosphorylation IGF-2", "setting": "IGF-1R phosphorylation", "result": "++ (>30%@1ug/ml)"}, {"measurement": "IGF Blocking IGF-1", "setting": "IGF-1R", "result": "++ (>30%@1ug/ml)"}, {"measurement": "IGF Blocking IGF-2", "setting": "IGF-1R", "result": "++ (>30%@1ug/ml)"}]}
{"molecule": "B2", "values": [{"measurement": "blocking of IGF-1 and IGF-2 binding to IGF-1R", "setting": "IGF-1R", "result": "block both IGF-1 and IGF-2 binding"}]}
{"molecule": "B3", "values": [{"measurement": "Inhibition of IGF-1R Phosphorylation IGF-1", "setting": "IGF-1R phosphorylation", "result": "+ (>30%@10 ug/ml)"}, {"measurement": "Inhibition of IGF-1R Phosphorylation IGF-2", "setting": "IGF-1R phosphorylation", "result": "+ (>30%@10 ug/ml)"}, {"measurement": "IGF Blocking IGF-1", "setting": "IGF-1R", "result": "+ (>30%@10ug/ml)"}, {"measurement": "IGF Blocking IGF-2", "setting": "IGF-1R", "result": "+ (>30%@10ug/ml)"}]}
{"molecule": "B4", "values": [{"measurement": "blocking of IGF-1 and IGF-2 binding to IGF-1R", "setting": "IGF-1R", "result": "block both IGF-1 and IGF-2 binding"}]}
{"molecule": "B5", "values": [{"measurement": "blocking of IGF-1 and IGF-2 binding to IGF-1R", "setting": "IGF-1R", "result": "blocked only IGF-2 binding"}]}
